According to patent EP4707292A2:

Key:
[1] = molecular target: Haploid virus AAV2/8 1:1 (adeno-associated virus 2; adeno-associated virus 8); experiment: cell-based or functional assay
[2] = molecular target: Haploid virus AAV2/8 1:3 (adeno-associated virus 2; adeno-associated virus 8); experiment: cell-based or functional assay
[3] = molecular target: Haploid virus AAV2/8 3:1 (adeno-associated virus 2; adeno-associated virus 8); experiment: cell-based or functional assay
[4] = molecular target: Adeno-associated virus 8 (AAV8) virion (adeno-associated virus 8); experiment: cell-based or functional assay
[5] = molecular target: Adeno-associated virus 2 (AAV2) virion (adeno-associated virus 2); experiment: cell-based or functional assay
[6] = molecular target: Adeno-associated virus 9 (AAV9) virion (adeno-associated virus 9); experiment: co-IP with ADK9/LC-MS/MS, AAV9 + human serum vs control
[7] = molecular target: Adeno-associated virus 8 (AAV8) virion (adeno-associated virus 8); experiment: co-IP/LC-MS/MS, AAV8 + human serum vs PBS control

Sequence of Fibronectin, P02751 32-2477 (P02751 32-2477 limits assumed): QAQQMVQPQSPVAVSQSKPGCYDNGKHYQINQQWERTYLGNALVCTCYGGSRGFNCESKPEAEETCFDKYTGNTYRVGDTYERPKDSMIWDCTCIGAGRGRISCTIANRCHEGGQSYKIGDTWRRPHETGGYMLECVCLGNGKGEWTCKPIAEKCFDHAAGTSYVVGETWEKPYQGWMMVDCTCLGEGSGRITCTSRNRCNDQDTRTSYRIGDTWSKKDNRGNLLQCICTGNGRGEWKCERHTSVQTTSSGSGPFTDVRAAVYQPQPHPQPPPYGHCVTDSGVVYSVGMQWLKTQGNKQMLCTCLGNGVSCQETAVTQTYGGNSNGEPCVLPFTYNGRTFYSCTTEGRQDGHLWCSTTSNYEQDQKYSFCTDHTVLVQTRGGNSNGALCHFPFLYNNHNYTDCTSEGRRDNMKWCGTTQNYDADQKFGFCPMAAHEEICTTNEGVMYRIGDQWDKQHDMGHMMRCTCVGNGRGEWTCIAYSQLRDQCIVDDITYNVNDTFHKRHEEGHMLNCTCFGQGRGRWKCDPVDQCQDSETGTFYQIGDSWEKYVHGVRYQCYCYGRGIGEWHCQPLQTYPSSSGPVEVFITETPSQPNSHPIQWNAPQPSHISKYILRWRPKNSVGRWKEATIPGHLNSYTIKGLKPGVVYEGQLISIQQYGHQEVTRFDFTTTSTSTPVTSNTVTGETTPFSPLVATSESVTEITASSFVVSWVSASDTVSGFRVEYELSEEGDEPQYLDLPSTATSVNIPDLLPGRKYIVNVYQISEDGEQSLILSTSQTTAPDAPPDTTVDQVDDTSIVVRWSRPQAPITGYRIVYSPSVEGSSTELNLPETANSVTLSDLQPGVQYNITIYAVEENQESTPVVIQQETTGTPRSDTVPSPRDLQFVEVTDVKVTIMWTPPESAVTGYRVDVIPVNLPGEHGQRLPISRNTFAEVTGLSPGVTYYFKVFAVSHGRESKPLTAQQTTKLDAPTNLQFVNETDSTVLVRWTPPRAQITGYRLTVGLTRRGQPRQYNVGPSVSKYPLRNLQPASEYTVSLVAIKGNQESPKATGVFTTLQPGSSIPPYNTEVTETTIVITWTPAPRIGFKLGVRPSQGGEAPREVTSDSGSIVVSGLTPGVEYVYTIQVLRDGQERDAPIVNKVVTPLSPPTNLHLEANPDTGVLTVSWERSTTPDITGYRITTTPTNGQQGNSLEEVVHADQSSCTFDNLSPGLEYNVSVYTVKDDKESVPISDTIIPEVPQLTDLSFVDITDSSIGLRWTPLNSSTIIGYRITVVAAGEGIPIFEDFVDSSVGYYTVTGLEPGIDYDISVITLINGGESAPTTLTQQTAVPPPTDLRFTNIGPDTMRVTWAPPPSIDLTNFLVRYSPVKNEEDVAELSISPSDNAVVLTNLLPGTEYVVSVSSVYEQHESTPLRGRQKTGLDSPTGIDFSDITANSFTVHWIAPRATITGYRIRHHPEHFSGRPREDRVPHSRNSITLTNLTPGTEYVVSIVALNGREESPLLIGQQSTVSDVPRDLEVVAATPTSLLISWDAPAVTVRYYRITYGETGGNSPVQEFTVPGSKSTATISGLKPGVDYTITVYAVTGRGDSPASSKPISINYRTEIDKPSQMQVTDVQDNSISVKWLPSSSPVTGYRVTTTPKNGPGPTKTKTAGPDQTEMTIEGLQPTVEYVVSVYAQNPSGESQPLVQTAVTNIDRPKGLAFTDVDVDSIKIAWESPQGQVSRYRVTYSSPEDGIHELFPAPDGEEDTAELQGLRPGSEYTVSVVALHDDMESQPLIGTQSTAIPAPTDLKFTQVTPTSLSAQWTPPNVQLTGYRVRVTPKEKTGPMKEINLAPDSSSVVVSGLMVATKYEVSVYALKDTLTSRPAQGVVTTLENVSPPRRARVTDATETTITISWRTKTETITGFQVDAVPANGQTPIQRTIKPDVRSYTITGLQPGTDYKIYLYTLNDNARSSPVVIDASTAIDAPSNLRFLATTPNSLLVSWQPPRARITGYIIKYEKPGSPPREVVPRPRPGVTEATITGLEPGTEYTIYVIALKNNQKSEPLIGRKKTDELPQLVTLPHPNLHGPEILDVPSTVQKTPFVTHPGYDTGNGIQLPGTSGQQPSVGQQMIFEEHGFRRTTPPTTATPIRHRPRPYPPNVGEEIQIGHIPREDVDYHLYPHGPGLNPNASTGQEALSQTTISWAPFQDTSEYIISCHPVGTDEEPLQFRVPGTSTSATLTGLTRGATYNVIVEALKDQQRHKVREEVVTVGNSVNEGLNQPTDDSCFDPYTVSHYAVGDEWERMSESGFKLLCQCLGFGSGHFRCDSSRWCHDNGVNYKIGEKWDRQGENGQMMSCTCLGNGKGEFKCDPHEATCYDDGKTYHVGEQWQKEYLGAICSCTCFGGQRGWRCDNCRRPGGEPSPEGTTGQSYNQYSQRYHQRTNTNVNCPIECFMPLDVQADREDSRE
Sequence of Ig kappa chain V-I region EU (P01602 23-117 limits assumed): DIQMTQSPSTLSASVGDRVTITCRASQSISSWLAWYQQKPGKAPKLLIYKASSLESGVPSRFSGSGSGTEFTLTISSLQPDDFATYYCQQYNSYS

Monoclonal antibody A20
Neutralization antibody titer (reciprocal dilution) [1]: 32 | Neutralization antibody titer (reciprocal dilution) [2]: < 2 | Neutralization antibody titer (reciprocal dilution) [3]: 2048 | Neutralization antibody titer (reciprocal dilution) [4]: < 2 | A20 neutralizing antibody titer (the dilution at first time inhibits AAV transduction over 50%) (reciprocal dilution) [5]: 640 | Neutralization antibody titer (reciprocal dilution) [5]: 512

Monoclonal antibody ADK8
Neutralization antibody titer (reciprocal dilution) [1]: 512 | Neutralization antibody titer (reciprocal dilution) [2]: 1024 | Neutralization antibody titer (reciprocal dilution) [3]: 512 | Neutralization antibody titer (reciprocal dilution) [4]: 1024 | Neutralization antibody titer (reciprocal dilution) [5]: < 2

Platelet factor 4 variant (from UniProt P10720 31-104)
Fold increase [6]: 1.47 fold | fold change [6]: 0.938 fold | fold change [7]: 0.938 fold

Ig kappa chain V-I region EU (from UniProt P01602 23-117)
fold change [6]: 3.83 fold | fold change [7]: 3.83 fold

Complement C4-A (from UniProt P0C0L4 20-1744)
fold change [6]: 2.42 fold | fold change [7]: 2.42 fold

Transthyretin (from UniProt P02766 21-147)
fold change [6]: 5.55 fold | fold change [7]: 5.55 fold

Alpha-2-HS-glycoprotein (from UniProt C9JV77 19-301; C9JV77 342-368)
fold change [6]: 3.17 fold | fold change [7]: 3.17 fold

Ig kappa chain V-III region SIE (from UniProt P01619 21-116)
fold change [6]: 2.79 fold | fold change [7]: 2.79 fold

Fibronectin, P02751 32-2477
Fold increase [6]: 5.41 fold | fold change [6]: 2.5 fold | fold change [7]: 2.5 fold

Fibrinogen gamma chain (Fragment) (from UniProt C9JU00 1-123)
Fold increase [6]: 8.36 fold | fold change [6]: 0.417 fold | fold change [7]: 0.417 fold

Ig lambda-2 chain C regions (from UniProt P0DOY2 1-106)
fold change [6]: 1.5 fold | fold change [7]: 1.5 fold
